From US20190071513A1 (APTEVO RESEARCH AND DEVELOPMENT, published 2019) come the findings set out here.

Test [1] deals with T1, human CD123 ectodomain with Avi-3xFLAG-His affinity tag (TRI032) (human).
T1 construct: also called CD123 ECD; recombinant monomeric CD123 ectodomain (ECD)
T1 chain: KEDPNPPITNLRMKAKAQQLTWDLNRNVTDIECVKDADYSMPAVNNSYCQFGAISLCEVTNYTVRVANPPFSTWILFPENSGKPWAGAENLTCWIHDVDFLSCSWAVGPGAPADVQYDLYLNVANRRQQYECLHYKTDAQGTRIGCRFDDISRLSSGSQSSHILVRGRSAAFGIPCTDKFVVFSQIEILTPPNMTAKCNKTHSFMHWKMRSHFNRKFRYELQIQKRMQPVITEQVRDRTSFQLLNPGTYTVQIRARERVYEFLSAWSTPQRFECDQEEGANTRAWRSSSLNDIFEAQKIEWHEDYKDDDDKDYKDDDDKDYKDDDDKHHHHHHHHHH
The experiment in a line: SPR (Biacore T200), bispecific captured by anti-Fc, monomeric CD123 ECD as analyte, 25 C, 1:1 model. In general terms: In SPR one partner is held on a chip, and binding of the other changes the refractive index at the surface.
Experimental: SPR binding studies of bispecific molecules to recombinant monomeric CD123 ectodomain (ECD) were conducted at 25° C. in HBS-EP+ buffer. […] The bispecific molecules at 200 nM in HBS-EP+ buffer were captured by the immobilized anti-Fc F(ab′)2 fragment at a flow rate of 30 μL/min for 120 sec to reach a stable 2000 RU response. […] Optimal regeneration was achieved by one injection of 10 mM glycine (pH 1.7) at a flow rate of 30 μL/min for 15 sec followed by one injection of 50 mM NaOH at 30 μL/min for 15 sec. A two minute stabilization with HBS-EP+ buffer was completed before the subsequent run.
Sensorgrams obtained from kinetic SPR measurements were analyzed by the double subtraction method. The signal from the reference flow cell was subtracted from the analyte binding response obtained from flow cells with immobilized or captured ligands. Buffer reference responses were then averaged from multiple injections. […] All sensorgrams were fitted using a simple one-to-one binding model.

Test [2] has as its target T2, Full-length cynomolgus CD123, isoform 1 (TRI114), on transfected cells (cynomolgus monkey).
T2 construct: also called cyno CD123; CHO cells stably expressing cynomolgus CD123 protein
T2 chain: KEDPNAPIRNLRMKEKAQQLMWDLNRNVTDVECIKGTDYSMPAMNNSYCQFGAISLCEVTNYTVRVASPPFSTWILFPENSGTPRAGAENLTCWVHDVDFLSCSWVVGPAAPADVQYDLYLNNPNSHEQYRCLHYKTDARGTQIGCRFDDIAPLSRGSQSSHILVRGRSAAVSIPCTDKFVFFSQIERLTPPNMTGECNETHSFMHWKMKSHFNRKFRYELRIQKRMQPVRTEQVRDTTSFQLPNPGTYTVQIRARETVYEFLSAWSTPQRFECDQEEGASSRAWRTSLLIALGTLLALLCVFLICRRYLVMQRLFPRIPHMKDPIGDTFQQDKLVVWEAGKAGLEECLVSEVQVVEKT
As to the kind of experiment: flow cytometry on CHO cells stably expressing cynomolgus CD123, PE anti-human IgG Fc secondary antibody, MFI; table under the graph.
Experimental: (§1) The Molm-13 cell line was obtained from DSMZ (Braunschweig, Germany). The Molm-13 cell line was cultured according to the provided protocols. Chinese hamster ovary (CHO) cells stably expressing the full length cynomolgus CD123 protein were developed in-house. […] Signal from bound molecules was detected using a LSR-II™ flow cytometer (BD Biosciences) and analyzed by FlowJo flow cytometry analysis software. Mean fluorescence intensity (MFI) of bound molecules on cells was determined after exclusion of doublets. Nonlinear regression analysis to determine EC50 values was performed in GraphPad Prism 7® graphing and statistics software.

The target of test [3] is T3, human CD123 on the surface of CD123(+) cell lines (human, UniProt P26951 19-378).
T3 construct: whole, on cells; endogenous protein of tumor cell lines; also called interleukin-3 receptor alpha chain; IL3RA
T3 sequence (P26951 19-378 limits assumed, form in doubt): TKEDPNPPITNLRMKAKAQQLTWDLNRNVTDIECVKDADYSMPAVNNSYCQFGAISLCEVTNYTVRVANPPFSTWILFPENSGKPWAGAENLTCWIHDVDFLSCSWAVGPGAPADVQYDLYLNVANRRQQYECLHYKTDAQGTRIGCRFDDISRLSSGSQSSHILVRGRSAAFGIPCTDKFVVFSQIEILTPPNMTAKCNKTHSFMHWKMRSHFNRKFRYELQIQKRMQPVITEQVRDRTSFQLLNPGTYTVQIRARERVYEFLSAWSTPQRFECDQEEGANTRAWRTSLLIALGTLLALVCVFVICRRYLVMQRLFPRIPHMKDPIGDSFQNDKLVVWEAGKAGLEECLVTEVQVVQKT
The experiment in a line: flow cytometry on CD123(+) Molm-13 cells, PE anti-human IgG Fc secondary antibody, MFI; table under the graph. For orientation: A flow cytometer gives signals particle by particle.
Experimental: as §1

The target in test [4] is T3, human CD123 on the surface of CD123(+) …. The test is described as above. This is another data set of the same source.
Experimental: as §1
The target in test [5] is human CD123 on the surface of CD123(+) cell lines (human) (UniProt P26951). The experiment in a line: flow cytometry competition on Molm-13 cells: preincubation with unlabeled 7G3, then PE-conjugated 7G3 at 13 nM as the competitor that is read.
Sequence of human CD123 on the surface of CD123(+) cell lines (human) (P26951 19-378 limits assumed, form in doubt): as above
Test [6] shares this target. The experiment in a line: flow cytometry competition on Molm-13 cells; competitor PE-conjugated 7G3 at 13 nM.
Test [7] has the same target. The experiment in a line: cell-based or functional assay.
In test [8] the target is T4, CD3ε on Jurkat cells and human T-cells (human, UniProt P07766 23-207).
T4 construct: whole, on cells; on cells CD3ε stands in the TCR/CD3 complex; also called CD3 epsilon; CD3ε(+) Jurkat cell line
T4 sequence (P07766 23-207): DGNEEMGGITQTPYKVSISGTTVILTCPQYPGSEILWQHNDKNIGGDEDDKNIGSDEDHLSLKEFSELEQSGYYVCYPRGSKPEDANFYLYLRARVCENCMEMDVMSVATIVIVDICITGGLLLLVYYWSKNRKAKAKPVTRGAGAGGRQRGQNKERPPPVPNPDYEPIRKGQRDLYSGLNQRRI
The experiment in a line: flow cytometry on CD3ε(+) Jurkat cells, PE anti-human Fc secondary.
Experimental: Flow cytometry was used to quantitate binding of constructed molecules to the CD3ε expressing Jurkat cell line. Binding studies on the CD3ε(+) Jurkat cell line were performed by standard flow cytometry-based staining procedures. […] Signal from bound molecules was detected using a LSR-II™ flow cytometer (BD Biosciences) and analyzed by FlowJo flow cytometry analysis software. Mean fluorescence intensity (MFI) of bound molecules on cells was determined after exclusion of doublets.

For test [9], the target named is T3, human CD123 on the surface of CD123(+) …. As to the kind of experiment: cell-based or functional assay.

Like-named read-outs stand apart in the source and are kept apart here.

B1: TRI129 (bispecific antibody)
chain: EVQLLESGGGLVQPGGSLRLSCAASGFTFSSYGMSWVRQAPGKGLEGVSAISGSGGSTYYADSVKGRFTISRDNSKNTLYLQMNSLRAEDTAVYYCAKEKLRYFDWLSDAFDIWGQGTMVTVSSGGGGSGGGGSGGGGSGGGGSDIVMTQSPDSLAVSLGERATINCKSSHSVLYSSNNKNYLAWYQQKPGQPPKLLIYWASTRESGVPDRFSGSGSGTDFTLTISSLQAEDVAVYYCQQYYSTPPTTFGGGTKVEIKSSSEPKSSDKTHTCPPCPAPEAAGAPSVFLFPPKPKDTLMISRTPEVTCVVVDVSHEDPEVKFNWYVDGVEVHNAKTKPREEQYNSTYRVVSVLTVLHQDWLNGKEYKCAVSNKALPAPIEKTISKAKGQPREPQVYTLPPSRDELTKNQVSLTCLVKGFYPSDIAVEWESNGQPENNYKTTPPVLDSDGSFFLYSKLTVDKSRWQQGNVFSCSVMHEALHNHYTQKSLSLSPGSGGGGSGGGGSGGGGSPSQVQLVQSGPEVKKPGSSVKVSCKASGYTFSRSTMHWVRQAPGQGLEWIGYINPSSAYTNYNQKFKDRVTITADKSTSTAYMELSSLRSEDTAVYYCARPQVHYDYNGFPYWGQGTLVTVSSGGGGSGGGGSGGGGSGGGGSDIQMTQSPSTLSASVGDRVTMTCSASSSVSYMNWYQQKPGKAPKRWIYDSSKLASGVPSRFSGSGSGTDYTLTISSLQPDDFATYYCQQWSRNPPTFGGGTKVEIKRS
notes: scFv-Fc-scFv, anti-CD123 × anti-CD3ε; dimer; also called OMT1 VHVL × TSC456 scFv-Fc-scFv
For B1, in [1], the Kd (as a rule, the free concentration of one partner at which half of the binding sites on the other are occupied at equilibrium, for simple one-to-one binding) stood at 11.4 nM; the koff (in general, the rate constant with which the complex falls apart) was 0.00205 s⁻¹; the kon (commonly a measure of how fast the partners come together) turned out to be 179000 M⁻¹ s⁻¹. Further, in test [2], the EC50 (usually the concentration that produces a half-maximal response) was 8.77 nM. The same molecule had an EC50 in [3] of 9.69 nM. A half-maximal effect in test [4] (EC50) was put at 5.33 nM.

B2: anti-human CD123 monoclonal antibody 7G3 (antibody, from another filing, V domains shown)
VH: EVQLQQSGPELVKPGASVKMSCKASGYTFTDYYMKWVKQSHGKSLEWIGDIIPSNGATFYNQKFKGKATLTVDRSSSTAYMHLNSLTSEDSAVYYCTRSHLLRASWFAYWGQGTLVTVSA
VL: DFVMTQSPSSLTVTAGEKVTMSCKSSQSLLNSGNQKNYLTWYLQKPGQPPKLLIYWASTRESGVPDRFTGSGSGTDFTLTISSVQAEDLAVYYCQNDYSYPYTFGGGTKLEIKR
For the molecule B2, the IC50 (read off the curve) in test [5] was found to be 2 nM. Further, the percent inhibition of binding of PE-conjugated 7G3 in test [6] came to 100%. This molecule registered an IL-3 induced proliferation of TF-1 cells (CyQUANT), 4 days in [7] of 100%.

B3: TSC266 (bispecific antibody)
chain: DIQMTQSPSAMSASVGDRVTITCRASKSISKYLAWFQQKPGKVPKLRIHSGSTLQSGVPSRFSGSGSGTEFTLTISSLQPEDFATYYCQQHIEYPWTFGQGTKVEIKRGGGGSGGGGSGGGGSQVQLVQSGAEVKKPGASVKVSCKASGYTFTDYYMHWVRQAPGQGLEWMGYFNPYNDYTRYAQKFQGRVTMTRDTSISTAYMELSSLRSDDTAVYYCARSDGYYDAMDYWGQGTTVTVSSSEPKSSDKTHTCPPCPAPEAAGAPSVFLFPPKPKDTLMISRTPEVTCVVVDVSHEDPEVKFNWYVDGVEVHNAKTKPREEQYNSTYRVVSVLTVLHQDWLNGKAYACAVSNKALPAPIEKTISKAKGQPREPQVYTLPPSRDELTKNQVSLTCLVKGFYPSDIAVEWESNGQPENNYKTTPPVLDSDGSFFLYSKLTVDKSRWQQGNVFSCSVMHEALHNHYTQKSLSLSPGQRHNNSSLNTGTQMAGHSPNSQVQLVESGGGVVQPGRSLRLSCKASGYTFTRSTMHWVRQAPGQGLEWIGYINPSSAYTNYNQKFKDRFTISADKSKSTAFLQMDSLRPEDTGVYFCARPQVHYDYNGFPYWGQGTPVTVSSGGGGSGGGGSGGGGSAQDIQMTQSPSSLSASVGDRVTMTCSASSSVSYMNWYQQKPGKAPKRWIYDSSKLASGVPARFSGSGSGTDYTLTISSLQPEDFATYYCQQWSRNPPTFGGGTKLQITSSS
notes: anti-PSMA scFv - Fc - anti-CD3 scFv (CRIS-7 derived) at the C-terminus; also called anti-PSMA×CRIS-7 scFv-Fc-scFv
For B3, in test [8], the EC50 stood at 2 nM and the “fold reduction of binding against DRA240” value is approximately 10 fold.

B4: TRI168 (bispecific antibody)
chain 1: QAVVTQEPSLTVSPGGTVTLTCRSSTGAVTTSNYANWVQQKPGQAPRGLIGGTNKRAPWTPARFSGSLLGGKAALTITGAQAEDEADYYCALWYSNLWVFGGGTKLTVLGGGGSGGGGEVQLVQSGAELKKPGASVKVSCKASGYTFTDYYMKWVRQAPGQGLEWIGDIIPSNGATFYNQKFKGRVTITVDKSTSTAYMELSSLRSEDTAVYYCARSHLLRASWFAYWGQGTLVTVSSGGCGGGEVAALEKEVAALEKEVAALEKEVAALEK
chain 2: DFVMTQSPDSLAVSLGERVTMSCKSSQSLLNSGNQKNYLTWYQQKPGQPPKLLIYWASTRESGVPDRFSGSGSGTDFTLTISSLQAEDVAVYYCQNDYSYPYTFGQGTKLEIKGGGSGGGGEVQLVESGGGLVQPGGSLRLSCAASGFTFSTYAMNWVRQAPGKGLEWVGRIRSKYNNYATYYADSVKDRFTISRDDSKNSLYLQMNSLKTEDTAVYYCVRHGNFGNSYVSWFAYWGQGTLVTVSSGGCGGGKVAALKEKVAALKEKVAALKEKVAALKESSSLNDIFEAQKIEWHEDYKDDDDKDYKDDDDKDYKDDDDKHHHHHHHHHH
Consider B4, for which, in test [9], the “EC50 of T-cell activation (CD4+ and CD8+ CD25+ CD69+) with Molm-13 cells, 24 hours” value was less than 0.01 nM; the “EC50 of T-cell proliferation (CFSE) with Molm-13 cells, 4 days” value fell in the range of 0.002 to 0.005 nM.
